Assay results: IntAct's records for PubMed 29541021

Key:
[1] = molecular target: 1433f_human YWHAH (UniProt Q04917)
[2] = molecular target: dnm1l_human DNM1L (UniProt O00429)
Sequence of dnm1l_human DNM1L (O00429 whole entry): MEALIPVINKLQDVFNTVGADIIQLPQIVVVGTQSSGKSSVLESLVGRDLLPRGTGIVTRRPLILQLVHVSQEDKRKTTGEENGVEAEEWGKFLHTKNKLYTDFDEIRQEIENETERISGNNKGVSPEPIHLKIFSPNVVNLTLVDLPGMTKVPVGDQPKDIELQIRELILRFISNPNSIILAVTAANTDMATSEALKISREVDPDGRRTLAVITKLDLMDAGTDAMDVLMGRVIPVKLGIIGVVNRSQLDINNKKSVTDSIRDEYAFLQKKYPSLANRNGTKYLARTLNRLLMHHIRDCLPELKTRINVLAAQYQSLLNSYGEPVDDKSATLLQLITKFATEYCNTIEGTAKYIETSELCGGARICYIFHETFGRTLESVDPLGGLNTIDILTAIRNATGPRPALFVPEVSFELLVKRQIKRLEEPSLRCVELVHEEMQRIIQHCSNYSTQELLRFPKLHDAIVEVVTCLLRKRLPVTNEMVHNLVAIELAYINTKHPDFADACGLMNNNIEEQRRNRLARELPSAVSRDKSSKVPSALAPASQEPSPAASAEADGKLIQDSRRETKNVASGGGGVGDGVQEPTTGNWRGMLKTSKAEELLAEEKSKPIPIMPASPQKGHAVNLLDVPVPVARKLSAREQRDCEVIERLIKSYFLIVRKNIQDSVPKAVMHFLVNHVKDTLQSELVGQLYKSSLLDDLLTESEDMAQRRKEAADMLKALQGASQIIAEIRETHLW

Sequence of 1433f_human YWHAH (Q04917 whole entry): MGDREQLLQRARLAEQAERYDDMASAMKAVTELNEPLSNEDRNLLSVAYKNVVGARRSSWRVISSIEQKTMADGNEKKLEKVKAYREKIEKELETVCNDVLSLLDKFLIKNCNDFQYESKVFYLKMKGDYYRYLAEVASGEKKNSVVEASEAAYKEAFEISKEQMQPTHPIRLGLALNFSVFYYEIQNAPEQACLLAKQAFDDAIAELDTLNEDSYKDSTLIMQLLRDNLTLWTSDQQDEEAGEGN

“Leucine-rich repeat serine/threonine-protein kinase 2 (Homo sapiens), Q5S007 E193K” was tested, and the “effect of a mutation on the interaction” value [1] was “decreasing interaction strength” and the “effect of a mutation on the interaction” value [2] was “increasing interaction strength”.
